Consider one substance from publication PMC4284226.

Where only a bound is given, the exact number is not on record here.

This experiment concerns the target TRPM8-mTurquoise2 (human) (UniProt Q7Z2W7). In words: FRET or BRET.
Chain of UniProt Q7Z2W7 (Q7Z2W7 2-1104): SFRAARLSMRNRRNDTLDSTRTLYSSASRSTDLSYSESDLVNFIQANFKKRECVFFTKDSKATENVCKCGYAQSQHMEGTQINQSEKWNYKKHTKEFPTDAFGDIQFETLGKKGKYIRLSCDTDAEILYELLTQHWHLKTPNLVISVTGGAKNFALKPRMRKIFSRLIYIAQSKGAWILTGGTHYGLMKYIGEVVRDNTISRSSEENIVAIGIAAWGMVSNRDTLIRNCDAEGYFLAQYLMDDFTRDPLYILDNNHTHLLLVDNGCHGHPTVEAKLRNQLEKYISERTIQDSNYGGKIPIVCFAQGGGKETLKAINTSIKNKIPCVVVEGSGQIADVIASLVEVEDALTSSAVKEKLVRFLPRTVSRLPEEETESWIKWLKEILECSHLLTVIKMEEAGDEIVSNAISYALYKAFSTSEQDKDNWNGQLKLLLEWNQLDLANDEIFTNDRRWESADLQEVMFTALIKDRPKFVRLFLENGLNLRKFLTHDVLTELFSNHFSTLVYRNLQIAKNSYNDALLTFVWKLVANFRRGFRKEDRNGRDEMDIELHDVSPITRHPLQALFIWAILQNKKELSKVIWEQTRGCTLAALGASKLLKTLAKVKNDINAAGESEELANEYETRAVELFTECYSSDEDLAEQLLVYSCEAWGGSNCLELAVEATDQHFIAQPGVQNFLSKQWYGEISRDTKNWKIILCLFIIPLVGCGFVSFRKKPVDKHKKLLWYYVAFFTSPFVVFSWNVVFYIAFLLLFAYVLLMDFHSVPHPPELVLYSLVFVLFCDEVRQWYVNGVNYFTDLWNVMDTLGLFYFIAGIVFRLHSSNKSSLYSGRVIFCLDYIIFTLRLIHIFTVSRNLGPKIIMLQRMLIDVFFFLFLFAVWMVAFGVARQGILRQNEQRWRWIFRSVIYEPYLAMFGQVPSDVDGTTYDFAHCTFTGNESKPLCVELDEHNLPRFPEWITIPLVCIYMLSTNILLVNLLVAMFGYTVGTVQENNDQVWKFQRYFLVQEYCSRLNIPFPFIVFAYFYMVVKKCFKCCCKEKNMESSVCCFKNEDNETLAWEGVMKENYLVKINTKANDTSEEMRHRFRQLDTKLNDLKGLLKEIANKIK

free SYFP2 protein yielded an E FRET of under 1%.
